Molecular target: fetuin
Test: ELISA on coated fetuin, OS-PT at 20 µg/ml, detection with anti-PT serum

OS-PT conjugate: B. pertussis 186 LOS-derived oligosaccharide coupled to pertussis toxin by reductive amination (oligosaccharide content not specified at the place) (from UniProt P04977 35-269; P04978 28-226; P04979 29-227; P0A3R5 43-152; P04981 35-133)
absorbance at A405 nm: 0.117 A405 nm

— patent US9878051
